For this assay, the target named is APOBEC3B with C-terminal 3xHA tag (A3Bi-3xHA) (human) (UniProt Q9UH17). The assay is described as follows: cell-based or functional assay.

The substance “hnRNPUL1-Cas9n-UGI-NLS (heterogeneous nuclear ribonucleoprotein U-like fused to the N-terminal end of Cas9 nickase, in the BE3 vector in place of APOBEC1) (from UniProt Q9BUJ2 1-856; Q99ZW2 2-1368; P14739 2-84)” gave an eGFP-positive 293T cells 72 hours post-transfection (chromosomal eGFP Leu202 reporter) of 1.5% and an episomal eGFP Leu202 reporter editing frequency against the BFP-Cas9n/gRNA background above 2 fold.

The values above are taken from patent publication US20210108188A1.
